The source of these data is article PMC6497721, “DNA methylation repels targeting of Arabidopsis REF6”.

The target in series [1] is T1, REF6 ZnF1-4 (Arabidopsis thaliana, UniProt Q9STM3 1239-1360).
T1 sequence: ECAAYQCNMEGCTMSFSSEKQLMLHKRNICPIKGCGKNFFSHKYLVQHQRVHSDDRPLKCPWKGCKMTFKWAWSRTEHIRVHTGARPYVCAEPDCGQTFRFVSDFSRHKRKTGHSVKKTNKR
As to the kind of experiment: ITC; 20 uM ZnCl2; ITC: 20 mM Tris-HCl pH 7.5, 150 mM NaCl, 20 uM ZnCl2, 25 C; EMSA: 25 mM Tris-HCl pH 8.0, 100 mM NaCl, 2.5 mM MgCl2, 0.1% CA-630, 10% glycerol, 1 uM ZnSO4, 1 mM. The note with it: protein: recombinant; tags: GST removed by PreScission; blunt. In general terms: Isothermal titration calorimetry measures the heat released or taken up as one component is titrated into another.

In series [2] the target is T2, GST-REF6C (ZnF1-4) (Arabidopsis thaliana, UniProt Q9STM3 1239-1360).
T2 sequence: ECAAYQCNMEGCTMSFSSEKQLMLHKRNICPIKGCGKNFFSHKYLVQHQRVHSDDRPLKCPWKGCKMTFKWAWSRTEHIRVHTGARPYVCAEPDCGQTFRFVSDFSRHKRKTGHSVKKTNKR
Put plainly: EMSA; 1 uM ZnSO4; ITC: 20 mM Tris-HCl pH 7.5, 150 mM NaCl, 20 uM ZnCl2, 25 C; EMSA: 25 mM Tris-HCl pH 8.0, 100 mM NaCl, 2.5 mM MgCl2, 0.1% CA-630, 10% glycerol, 1 uM ZnSO4, 1 mM. To be noted: protein: recombinant; tags: N-terminal GST (pGEX-6P-1); label: 5'-32P; blunt.

B1: NAC004P_5mC1 (dsDNA)
DNA 1: TTCTCTGTTTTG
DNA 2: CAAAACAGAGAA
modifications: 5mC at top strand position 3
Take B1: the Kd (usually a measure of binding affinity in units of concentration) in series [1] turned out to be 65.7 ± 4.9 nM.

B2: NAC004P_5mC3 (dsDNA)
DNA 1: TTCTCTGTTTTG
DNA 2: CAAAACAGAGAA
modifications: 5mC at top strand position 5
As for B2, in series [1], the Kd was determined as 110 ± 3.8 nM.

B3: NAC004 50-bp probe (dsDNA)
DNA 1: GGGAGAATCTCAAACTTTCTCTGTTTTGTCTTTAGAAACTTTGAAATATC
DNA 2: GATATTTCAAAGTTTCTAAAGACAAAACAGAGAAAGTTTGAGATTCTCCC
With B3, the binding result in series [2] is “binds”.

B4: NAC004P 12-mer (dsDNA)
DNA 1: TTCTCTGTTTTG
DNA 2: CAAAACAGAGAA
With B4, in series [1], the Kd came out at 73.5 ± 7 nM.
